Source: patent US20240122983A1 (SHATTUCK LABS, published 2024)
Read-outs that look alike come from different tables or passages of the source.

B1: recombinant mouse mCD40 protein (receptor, UniProt P27512 20-193, looked up)
chain: LGQCVTCSDKQYLHDGQCCDLCQPGSRLTSHCTALEKTQCHPCDSGEFSAQWNREIRCHQHRHCEPNQGLRVKKEGTAESDTVCTCKEGQHCTSKDCEACAQHTPCIPGFGVMEMATETTDTVCHPCPVGFFSNQSSLFEKCYPWTSCEDKNLEVLQKGTSQTNVICGLKSRMR
B2: Standard(mCD40L) (ligand, mouse, UniProt P27548 112-260, looked up)
ligand chain: MQRGDEDPQIAAHVVSEANSNAASVLQWAKKGYYTMKSNLVMLENGKQLTVKREGLYYVYTQVTFCSNREPSSQRPFIVGLWLKPSSGSERILLKAANTHSSSQLCEQQSVHLGGVFELQAGASVFVNVTEASQVIHRVGFSSFGLLKL
notes: recombinant soluble protein; also called recombinant mCD40L protein
B3: mFLT3L-Fc-OX40L chimeric protein (Fc fusion, murine;mouse (printed as mFc), UniProt P49772 27-189, looked up)
chain: GTPDCYFSHSPISSNFKVKFRELTDHLLKDYPVTVAVNLQDEKHCKALWSLFLAQRWIEQLKTVAGSKMQTLLEDVNTEIHFVTSCTFQPLPECLRFVQTNISHLLKDTCTQLLALKPCIGKACQNFSRCLEVQCQPDSSTLLPPRSPIALEATELPEPRPRQVPRDCGCKPCICTVPEVSSVFIFPPKPKDVLTITLTPKVTCVVVDISKDDPEVQFSWFVDDVEVHTAQTQPREEQFNSTFRSVSELPIMHQDWLNGKEFKCRVNSAAFPAPIEKTISKTKGRPKAPQVYTIPPPKEQMAKDKVSLTCMITDFFPEDITVEWQWNGQPAENYKNTQPIMNTNGSYFVYSKLNVQKSNWEAGNTFTCSVLHEGLHNHHTEKSLSHSPGKSSSPAKDPPIQRLRGAVTRCEDGQLFISSYKNEYQTMEVQNNSVVIKCDGLYIIYLKGSFFQEVKIDLHFREDHNPISIPMLNDGRRIVFTVVASLAFKDKVYLTVNAPDTLCEHLQINDGELIVVQLTPGYCAPEGSYHSTVNQVPL
notes: extracellular domain;domain: hinge-CH2-CH3 Fc domain; Expressed in 293 cells, purified on protein A; multimer when not reduced; also called murine FLT3L-Fc-OX40L
B4: recombinant mouse mFLT3 protein (receptor, UniProt Q00342 28-544, looked up)
chain: NQDLPVIKCVLISHENNGSSAGKPSSYRMVRGSPEDLQCTPRRQSEGTVYEAATVEVAESGSITLQVQLATPGDLSCLWVFKHSSLGCQPHFDLQNRGIVSMAILNVTETQAGEYLLHIQSEAANYTVLFTVNVRDTQLYVLRRPYFRKMENQDALLCISEGVPEPTVEWVLCSSHRESCKEEGPAVVRKEEKVLHELFGTDIRCCARNALGRESTKLFTIDLNQAPQSTLPQLFLKVGEPLWIRCKAIHVNHGFGLTWELEDKALEEGSYFEMSTYSTNRTMIRILLAFVSSVGRNDTGYYTCSSSKHPSQSALVTILEKGFINATSSQEEYEIDPYEKFCFSVRFKAYPRIRCTWIFSQASFPCEQRGLEDGYSISKFCDHKNKPGEYIFYAENDDAQFTKMFTLNIRKKPQVLANASASQASCSSDGYPLPSWTWKKCSDKSPNCTEEIPEGVWNKKANRKVFGQWVSSSTLNMSEAGKGLLVKCCAYNSMGTSCETIFLNSPGPFPFIQDNIS
B5: Standard mFlt3L (ligand)
chain: GTPDCYFSHSPISSNFKVKFRELTDHLLKDYPVTVAVNLQDEKHCKALWSLFLAQRWIEQLKTVAGSKMQTLLEDVNTEIHFVTSCTFQPLPECLRFVQTNISHLLKDTCTQLLALKPCIGKACQNFSRCLEVQCQPDSSTLLPPRSPIALEATELPEPRPRQ
notes: also called recombinant mFLT3L protein
B6: mFLT3L-Fc-GITRL chimeric protein (Fc fusion, murine;mouse (printed as mFc), UniProt P49772 27-189, looked up)
chain: GTPDCYFSHSPISSNFKVKFRELTDHLLKDYPVTVAVNLQDEKHCKALWSLFLAQRWIEQLKTVAGSKMQTLLEDVNTEIHFVTSCTFQPLPECLRFVQTNISHLLKDTCTQLLALKPCIGKACQNFSRCLEVQCQPDSSTLLPPRSPIALEATELPEPRPRQVPRDCGCKPCICTVPEVSSVFIFPPKPKDVLTITLTPKVTCVVVDISKDDPEVQFSWFVDDVEVHTAQTQPREEQFNSTFRSVSELPIMHQDWLNGKEFKCRVNSAAFPAPIEKTISKTKGRPKAPQVYTIPPPKEQMAKDKVSLTCMITDFFPEDITVEWQWNGQPAENYKNTQPIMNTNGSYFVYSKLNVQKSNWEAGNTFTCSVLHEGLHNHHTEKSLSHSPGKTSLKPTAIESCMVKFELSSSKWHMTSPKPHCVNTTSDGKLKILQSGTYLIYGQVIPVDKKYIKDNAPFVVQIYKKNDVLQTLMNDFQILPIGGVYELHAGDNIYLKFNSKDHIQKTNTYWGIILMPDLPFIS
notes: extracellular domain;domain: hinge-CH2-CH3 Fc domain; Expressed in 293 cells, purified on protein A; multimer when not reduced; also called murine FLT3L-Fc-GITRL; mFLT3-Fc-GITRL
B7: mFLT3L-Fc-CD40L chimeric protein (Fc fusion, murine;mouse (printed as mFc), UniProt P49772 27-189, looked up)
chain: GTPDCYFSHSPISSNFKVKFRELTDHLLKDYPVTVAVNLQDEKHCKALWSLFLAQRWIEQLKTVAGSKMQTLLEDVNTEIHFVTSCTFQPLPECLRFVQTNISHLLKDTCTQLLALKPCIGKACQNFSRCLEVQCQPDSSTLLPPRSPIALEATELPEPRPRQVPRDCGCKPCICTVPEVSSVFIFPPKPKDVLTITLTPKVTCVVVDISKDDPEVQFSWFVDDVEVHTAQTQPREEQFNSTFRSVSELPIMHQDWLNGKEFKCRVNSAAFPAPIEKTISKTKGRPKAPQVYTIPPPKEQMAKDKVSLTCMITDFFPEDITVEWQWNGQPAENYKNTQPIMNTNGSYFVYSKLNVQKSNWEAGNTFTCSVLHEGLHNHHTEKSLSHSPGKHRRLDKVEEEVNLHEDFVFIKKLKRCNKGEGSLSLLNCEEMRRQFEDLVKDITLNKEEKKENSFEMQRGDEDPQIAAHVVSEANSNAASVLQWAKKGYYTMKSNLVMLENGKQLTVKREGLYYVYTQVTFCSNREPSSQRPFIVGLWLKPSSGSERILLKAANTHSSSQLCEQQSVHLGGVFELQAGASVFVNVTEASQVIHRVGFSSFGLLKL
notes: extracellular domain;domain: hinge-CH2-CH3 Fc domain; Expressed in 293 cells, purified on protein A; multimer when not reduced; also called murine FLT3L-Fc-CD40L; mFLT3-Fc-CD40L

How the values were obtained:
[1] = molecular target: B7; assay: Octet biolayer interferometry, loading mCD40-his, analyte Conc. 142.9 nM, Full R2 0.995
From the text: (§1) Octet was used to determine on-/off-rates and binding affinities to the target receptors.

[2] = molecular target: B1; assay: ELISA: plate-bound mCD40 (5ug/ml), detection anti-mCD40L (1:1000) and anti-goat IgG (1:10,000)
From the text: (§2) Recombinant mFLT3L protein was used to generate a standard curve. […] A mouse whole IgG was used to generate a standard curve. […] Recombinant mCD40L protein was used to generate a standard curve.

[3] = molecular target: T1, recombinant mouse mOX40 protein (mouse, UniProt P47741 20-211, limits assumed); assay: Dual ELISA: capture anti-FLT3L (R&D AF427), detection with mOX40-His (Acro), tertiary anti-His/HRP (Abcam)
T1 sequence (looked up): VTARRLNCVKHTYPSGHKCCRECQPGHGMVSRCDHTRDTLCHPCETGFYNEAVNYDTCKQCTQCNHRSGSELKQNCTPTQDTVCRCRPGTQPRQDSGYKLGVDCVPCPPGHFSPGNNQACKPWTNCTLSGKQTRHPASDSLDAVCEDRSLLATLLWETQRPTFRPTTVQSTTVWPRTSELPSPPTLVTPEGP
Protocol: (§3) Capture was performed with an anti-FLT3L antibody, followed by detection of the co-stimulatory domain with a his-tagged recombinant protein, and visualized using an anti-his/HRP antibody.

[4] = molecular target: T2, anti-mIgG; assay: ELISA: plate-bound anti-mIgG (10ug/ml), detection anti-mIgG-HRP (1:1000)
T2 construct: capture antibody of the mFc ELISA; also called Capture Ab: anti-mIgG(10ug/ml)
From the text: Recombinant mFLT3L protein was used to generate a standard curve. […] A mouse whole IgG was used to generate a standard curve. […] Recombinant m4-1BBL protein was used to generate a standard curve.
(§4) Recombinant mFLT3L protein was used to generate a standard curve. […] A mouse whole IgG was used to generate a standard curve. […] Recombinant mOX40L protein was used to generate a standard curve.

[5] = molecular target: T2, anti-mIgG; assay: as above; remark: listed apart in the source
From the text: as §4

[6] = molecular target: B7; assay: Octet biolayer interferometry, loading mFLT3-his, analyte Conc. 142.9 nM, Full R2 0.9654
From the text: as §1

[7] = molecular target: B4; assay: ELISA: plate-bound mFlt3 (10ug/ml), detection goat anti-mFlt3L (1:1000) and anti-goat IgG (10,000)
From the text: as §2

[8] = molecular target: T2, anti-mIgG; assay: ELISA: plate-bound anti-mIgG (10ug/ml), detection anti-mIgG-HRP (1:1000); remark: listed apart in the source
From the text: Recombinant mFLT3L protein was used to generate a standard curve. […] A mouse whole IgG was used to generate a standard curve. […] Recombinant mGITRL protein was used to generate a standard curve.

[9] = molecular target: B1; assay: Dual ELISA: capture anti-FLT3L (R&D AF427), detection with mCD40-His (Acro), tertiary anti-His/HRP (Abcam)
Protocol: as §3

Question: B1 was tested. Which Kd [1] did it give?
Answer: 14.2 nM

Question: And the koff [1]?
Answer: 0.000858 s⁻¹

Question: What about the kon [1] of the same binder?
Answer: 61800 M⁻¹ s⁻¹

Question: For B2, which “EC50 (read off the curve)” value [2] is on record?
Answer: ~10 nM

Question: How did the “EC50 (read off the curve)” value [3] turn out when B3 was run?
Answer: ~1 nM

Question: What about the “EC50 (read off the curve)” value [4] of the same binder?
Answer: ~20 nM

Question: What about the “EC50 (read off the curve)” value [5] of the same binder?
Answer: ~20 nM

Question: What does the source list for B4?
Answer: Kd [6]: 15.2 nM; koff [6]: 0.00312 s⁻¹; kon [6]: 205000 M⁻¹ s⁻¹

Question: Does B5 bind [7]?
Answer: binds

Question: For B6, which “EC50 (read off the curve)” value [4] is on record?
Answer: ~6 nM

Question: And the “EC50 (read off the curve)” value [8]?
Answer: ~6 nM

Question: With B7 as the binder, how does the “EC50 (read off the curve)” value [9] read?
Answer: ~1 nM
